Source: PMC5986797, “Laminin heparin-binding peptides bind to several growth factors and enhance diabetic wound healing” (Nature Communications, 2018)

What was measured:
Settings in all cases: both partners purified
[1] = molecular target: T1, recombinant human laminin-521 (human, UniProt O15230 36-3695; P55268 33-1798; P11047 34-1609); experiment: ELISA; plates coated with 50 nM GF or chemokine in PBS; 10 nM laminin isoform in PBS added; bound laminin detected with anti-LAMC1 or anti-LAMA3 polyclonal antibody; A450 signals greater than 0.1 taken as binding; BSA-coated wells as control
T1 construct: laminin subunit alpha-5, human; chain told by the isoform's name; laminin subunit beta-2, human; laminin subunit gamma-1, human; also called laminin isoform-521; source: bought: BioLamina (recombinant human, >95% purity); copies: + +

[2] = molecular target: T2, recombinant human laminin-211 (human, UniProt P24043 23-3122; P07942 22-1786; P11047 34-1609); experiment: as above
T2 construct: laminin subunit alpha-2, human; chain told by the isoform's name; laminin subunit beta-1, human; laminin subunit gamma-1, human; source: bought: BioLamina (recombinant human, >95% purity); copies: + +

[3] = molecular target: T3, recombinant human laminin-111 (human, UniProt P25391 18-3075; P07942 22-1786; P11047 34-1609); experiment: as above
T3 construct: laminin subunit alpha-1, human; chain told by the isoform's name; laminin subunit beta-1, human; laminin subunit gamma-1, human; source: bought: BioLamina (recombinant human, >95% purity); copies: + +

[4] = molecular target: T4, recombinant human laminin-511 (human, UniProt O15230 36-3695; P07942 22-1786; P11047 34-1609); experiment: as above
T4 construct: laminin subunit alpha-5, human; chain told by the isoform's name; laminin subunit beta-1, human; laminin subunit gamma-1, human; source: bought: BioLamina (recombinant human, >95% purity); copies: + +

[5] = molecular target: T5, FGF-2 (human, UniProt P09038 143-288); experiment: ELISA; plates coated with laminin peptide (10 µg/mL by the legend, 1 μg/mL by the methods); 1 μg/mL GF added; bound GF detected with an antibody for each GF; BSA-coated wells as control
T5 construct: fibroblast growth factor 2, human, bought in its mature form; source: bought: PeproTech; produced in Escherichia coli

[6] = molecular target: T6, platelet-derived growth factor PDGF-BB (human, UniProt P01127 82-190); experiment: as above
T6 construct: platelet-derived growth factor subunit B, human, bought in its mature form; a homodimer by its name; source: bought: PeproTech; produced in Escherichia coli

[7] = molecular target: T7, placental growth factor (PlGF)-2 (human, UniProt P49763-3 19-170); experiment: as above
T7 construct: placenta growth factor, form PlGF-2, human, bought in its mature form; source: bought: PeproTech; produced in Escherichia coli
T7 sequence (looked up): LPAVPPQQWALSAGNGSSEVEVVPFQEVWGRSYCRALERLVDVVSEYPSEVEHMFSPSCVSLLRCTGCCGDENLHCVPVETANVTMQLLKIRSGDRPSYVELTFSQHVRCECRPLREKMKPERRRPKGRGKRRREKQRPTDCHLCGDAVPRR

[8] = molecular target: T8, recombinant human syndecan-1 (human, UniProt P18827 23-254); experiment: ELISA; plates coated with laminin peptide (10 µg/mL by the legend, 1 μg/mL by the methods); 1 μg/mL His-tagged syndecan added; detected with anti-histidine tag antibody; BSA-coated wells as control
T8 construct: syndecan-1, human, recombinant; probably the extracellular domain; source: bought: SinoBiological
T8 sequence (looked up): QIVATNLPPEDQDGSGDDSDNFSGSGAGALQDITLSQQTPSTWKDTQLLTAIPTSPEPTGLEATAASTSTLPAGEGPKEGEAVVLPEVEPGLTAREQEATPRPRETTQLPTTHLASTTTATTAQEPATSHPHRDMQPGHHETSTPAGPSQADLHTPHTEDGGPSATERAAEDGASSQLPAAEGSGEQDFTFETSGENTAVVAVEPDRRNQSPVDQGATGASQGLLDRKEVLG

[9] = molecular target: T9, recombinant human syndecan-2 (human, UniProt P34741 19-144); experiment: as above
T9 construct: syndecan-2, human, recombinant; probably the extracellular domain; source: bought: SinoBiological

[10] = molecular target: T10, recombinant human syndecan-4 (human, UniProt P31431 19-145); experiment: as above
T10 construct: syndecan-4, human, recombinant; probably the extracellular domain; source: bought: SinoBiological
T10 sequence (looked up): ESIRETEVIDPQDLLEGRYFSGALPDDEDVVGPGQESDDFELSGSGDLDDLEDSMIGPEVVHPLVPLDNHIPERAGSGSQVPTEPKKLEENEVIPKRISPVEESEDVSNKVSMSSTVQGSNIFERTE

Measured: binding result

T6 sequence (P01127 82-190): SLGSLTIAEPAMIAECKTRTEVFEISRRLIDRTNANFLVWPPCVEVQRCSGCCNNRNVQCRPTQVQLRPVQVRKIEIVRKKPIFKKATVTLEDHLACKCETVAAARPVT
T9 sequence (P34741 19-144): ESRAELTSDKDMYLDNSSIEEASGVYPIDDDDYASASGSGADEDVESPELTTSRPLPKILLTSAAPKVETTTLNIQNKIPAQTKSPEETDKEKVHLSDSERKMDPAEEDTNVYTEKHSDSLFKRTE
T5 sequence (P09038 143-288): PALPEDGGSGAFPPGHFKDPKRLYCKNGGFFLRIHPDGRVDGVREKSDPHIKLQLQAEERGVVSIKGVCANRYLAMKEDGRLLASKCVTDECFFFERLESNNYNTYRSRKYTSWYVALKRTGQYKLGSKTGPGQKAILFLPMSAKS

B1: NT-3 (ligand, UniProt P20783 139-257, looked up)
chain: YAEHKSHRGEYSVCDSESLWVTDKSSAIDIRGHQVTVLGEIKTGNSPVKQYFYETRCKEARPVKNGCRGIDDKHWNSQCKTSQTYVRALTSENNKLVGWRWIRIDTSCVCALSRKIGRT
notes: neurotrophin-3, bought in its mature form; also called neurotrophin NT-3; source: bought: PeproTech; produced in Escherichia coli
binds: [1] | [2] | [3] | [4]

B2: laminin peptide LAMA5_(3417–3436) (peptide, UniProt O15230 3417-3436, looked up)
peptide: RQRSRPGRWHKVSVRWEKNR
notes: laminin subunit alpha-5, human, residues 3417-3436; source: synthetic peptide (Genscript)
binds: [5] | [6] | [7] | [8] | [9] | [10]

B3: BMP-2 (ligand, UniProt P12643 283-396, looked up)
chain: QAKHKQRKRLKSSCKRHPLYVDFSDVGWNDWIVAPPGYHAFYCHGECPFPLADHLNSTNHAIVQTLVNSVNSKIPKACCVPTELSAISMLYLDENEKVVLKNYQDMVVEGCGCR
notes: bone morphogenetic protein 2, bought in its mature form; source: bought: PeproTech; produced in Escherichia coli
binds: [1] | [2] | [3] | [4]

B4: laminin peptide LAMA5_(3300–3330) (peptide, UniProt O15230 3300-3330, looked up)
peptide: TPGLGPRGLQATARKASRRSRQPARHPACML
notes: laminin subunit alpha-5, human, residues 3300-3330, from the LG3-LG4 linker; source: synthetic peptide (Genscript)
binds: [7] | [8] | [9] | [10]

B5: laminin peptide LAMA3_(3043–3067) (peptide, UniProt Q16787 3043-3067, looked up)
peptide: RLVFALGTDGKKLRIKSKEKCNDGK
notes: laminin subunit alpha-3, human, residues 3043-3067; also called laminin HBD peptide; source: synthetic peptide (Genscript)
binds: [5] | [6] | [7] | [8] | [9] | [10]

B6: FGF-7 (ligand, UniProt P21781 32-194, looked up)
chain: CNDMTPEQMATNVNCSSPERHTRSYDYMEGGDIRVRRLFCRTQWYLRIDKRGKVKGTQEMKNNYNIMEIRTVAVGIVAIKGVESEFYLAMNKEGKLYAKKECNEDCNFKELILENHYNTYASAKWTHNGGEMFVALNQKGIPVRGKKTKKEQKTAHFLPMAIT
notes: fibroblast growth factor 7, bought in its mature form; source: bought: PeproTech; produced in Escherichia coli
binds: [1] | [2] | [3] | [4]

B7: laminin peptide LAMA5_(3539–3550) (peptide, UniProt O15230 3539-3550, looked up)
peptide: TLPDVGLELEVR
notes: laminin subunit alpha-5, human, residues 3539-3550; source: synthetic peptide (Genscript)
binds: [5] | [6] | [7]

B8: BMP-3 (ligand, UniProt P12645 363-472, looked up)
chain: QWIEPRNCARRYLKVDFADIGWSEWIISPKSFDAYYCSGACQFPMPKSLKPSNHATIQSIVRAVGVVPGIPEPCCVPEKMSSLSILFFDENKNVVLKVYPNMTVESCACR
notes: bone morphogenetic protein 3, bought in its mature form; source: bought: PeproTech; produced in Escherichia coli
binds: [1] | [2] | [3] | [4]

B9: FGF-10 (ligand, UniProt O15520 38-208, looked up)
chain: QALGQDMVSPEATNSSSSSFSSPSSAGRHVRSYNHLQGDVRWRKLFSFTKYFLKIEKNGKVSGTKKENCPYSILEITSVEIGVVAVKAINSNYYLAMNKKGKLYGSKEFNNDCKLKERIEENGYNTYASFNWQHNGRQMYVALNGKGAPRRGQKTRRKNTSAHFLPMVVHS
notes: fibroblast growth factor 10, bought in its mature form; source: bought: PeproTech; produced in Escherichia coli
binds: [1] | [2] | [3] | [4]

B10: laminin peptide LAMA3_(2932–2951) (peptide, UniProt Q16787 2932-2951, looked up)
peptide: PPFLMLLKGSTRFNKTKTFR
notes: laminin subunit alpha-3, human, residues 2932-2951, from the LG3-LG4 linker; source: synthetic peptide (Genscript)
binds: [5]

B11: FGF-18 (ligand, UniProt O76093 28-207, looked up)
chain: EENVDFRIHVENQTRARDDVSRKQLRLYQLYSRTSGKHIQVLGRRISARGEDGDKYAQLLVETDTFGSQVRIKGKETEFYLCMNRKGKLVGKPDGTSKECVFIEKVLENNYTALMSAKYSGWYVGFTKKGRPRKGPKTRENQQDVHFMKRYPKGQPELQKPFKYTTVTKRSRRIRPTHPA
notes: fibroblast growth factor 18, bought in its mature form; source: bought: PeproTech; produced in Escherichia coli
binds: [1] | [2] | [3] | [4]
